The source of these data is publication PMC8244865, “Recruitment of phospholipase Cγ1 to the non-structural membrane protein pK15 of Kaposi Sarcoma-associated herpesvirus promotes its Src-dependent phosphorylation” (PLoS Pathogens, 2021).

What all share (format): binding
One experiment has as its target T1, PLCγ1 nSH2 (Homo sapiens, UniProt P19174).
T1 construct: nSH2 (545–662): 180 ± 43 nM; thioredoxin (pETM22 fusion, purified on Ni column) (N, cleaved yes); made in house; host or cells: E. coli BL21(DE3)
T1 sequence (P19174 545-662): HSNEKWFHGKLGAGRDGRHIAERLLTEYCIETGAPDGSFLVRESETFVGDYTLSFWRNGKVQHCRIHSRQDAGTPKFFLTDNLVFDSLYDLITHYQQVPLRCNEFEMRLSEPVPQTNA
As to the kind of experiment: 1H,15N HSQC NMR titration, PLCγ1 nSH2. Conditions: 1H-15N HSQC titration. On the procedure:
Fig 5 Affinity of pK15 peptide for PLCγ1 tSH2 or individual SH2 domains. (A) Binding curves of several PLCγ1 fragments in the presence of 200 nM 5,6-FAM-labelled pK15 (12mer). All measurements were performed in triplicate. […] (B and C) Overlay of ^1H,^15N HSQC NMR spectra of nSH2 (B) and cSH2 (C) alone (in yellow) and in the presence of 2 molar equivalents of the pK15 12mer peptide (blue), measured with a 600 MHz spectrometer at 298 K. The protein concentration was 100 μM and the buffer contained 100 mM MES, 150 mM NaCl, 3 mM TCEP, pH 6.5. (D and E) Excerpts from ^1H-^15N HSQC spectra of nSH2 (D) and cSH2 (E) upon addition of increasing concentrations of the pK15 12mer peptide.
Next, we used Nuclear Magnetic Resonance (NMR) spectroscopy to further compare the interaction of the phosphorylated pK15 12mer to the isolated nSH2 and cSH2 domains (Fig 5B–5E). We recorded ^1H-^15N HSQC spectra of each of the two domains in the presence of increasing concentrations of the pK15 peptide. In this spectrum, each N-H group of the protein gives rise to one peak. […] A change in the position of a few NMR peaks of the amide groups of the protein upon addition of the peptide is indicative of binding. […] The behavior of the NMR peaks during the titration series, however, differed for the two SH2 domains, indicating different binding kinetics. […] In light of this, it is conceivable that the preference of pK15 CT for cSH2 in vivo may be determined by kinetic rather than thermodynamic factors.
NMR experiments were recorded at 298 K on a 600-MHz Bruker Avance III-HD spectrometer equipped with an inverse HCN cryogenic probehead (nitrogen-cooled) and running Topspin 3.2 software. 2D ^15N-HSQC spectra were recorded using States-TPPI for frequency discrimination, with water suppression achieved via a combination of WATERGATE and water flip-back pulses to preserve the water magnetization. NMR data were processed in Topspin and analysed in CcpNmr Analysis v2.4 [74].

In another experiment the test system is PLCγ1 tSH2 domain. Briefly: AlphaLISA, PLCγ1 tSH2. The note with it: phosphorylated by 2xStrep-Src, 300 nM each protein, 1 h room temperature, 615 nm, at least two independent experiments. The method, then:
(§1) Fig 4 The PLCγ1 cSH2 domain is required for the binding of PLCγ1 to phosphorylated pK15 in vitro and may serve as a dominant-negative inhibitor. GST-fused pK15 cytoplasmic tail WT (A), or its truncated mutant N2 [51] (B), were phosphorylated in vitro by 2xStrep-Src and an AlphaLISA was performed with the indicated His-tagged fragments of PLCγ1. Mean and standard deviation from at least two independent experiments with two technical replicates each are depicted. GST fusion proteins of the N1 (C) or N2 (D) truncation mutants of the pK15 cytoplasmic tail were phosphorylated in vitro by 2xStrep-Src and their interaction with recombinant purified PLCγ1 tSH2 (tandem SH2) or SA (γ-specific array) domains was measured by AlphaLISA in the presence of increasing concentrations (300 nM, 600 nM, 900 nM, 1200 nM) of the purified PLCγ1 cSH2. […] After 48h lysates were collected and analysed by Western blot using an antibody to PLCγ1 pY^783 to assess the level of PLCγ1 phosphorylation. (F) The intensities of the pPLCγ1 bands shown in panel E were quantified by densitometry, normalized to the values obtained with the empty vector (EV) in the presence of pK15, and plotted as relative values. […]
(§2) His-tagged PLCγ1 (SA, tSH2 or the isolated SH2 domains) was incubated at room temperature with GST-tagged K15P or its mutants for 1 hour. […] Emission at 615 nm was detected on BioTek Synergy 2 plate reader.
Background: Alpha assays give light when donor and acceptor beads are brought close together.

The test system of experiment [1] is PLCγ1 R^586L and R^694L double mutant (DM) (SA and tSH2). Briefly: AlphaLISA, SA and tSH2 double mutant. Conditions: phosphorylated; 300 nM each protein. On the procedure: as §1, §2
In experiment [2] the test system is PLCγ1 SA and PLCγ1 tSH2, nSH2 R^586L mutant. Briefly: AlphaLISA, SA and tSH2 R586L mutant. The note with it: phosphorylated; 300 nM each protein; versus wt PLCγ1 SA and tSH2. The method, then: as §1, §2

With “DDLpYEEVLFPRN [pK15 12mer, phosphorylated peptide representing the last 12 amino acids of pK15 CT (DDLp…)]”, the “dissociation rate koff or association rate kon of nSH2–peptide complex relative to cSH2–peptide complex” value at PLCγ1 nSH2 (298 K, pH 6.5) is given as “more than one order of magnitude slower than the corresponding rate of the cSH2–peptide complex”. Also, on PLCγ1 nSH2 (600 MHz, 298 K, 100 μM protein, 100 mM MES, 150 mM NaCl, 3 mM TCEP, pH 6.5), the NMR exchange regime result is given as “slow exchange regime”. Also, the “affinity for nSH2 compared with cSH2 (NMR)” value at PLCγ1 nSH2 (same saturating concentration of peptide, either nSH2 or cSH2) is listed as “both domains bound the K15 peptide with similar affinity”.

B1: pK15 CT^WT: pK15 cytoplasmic tail fused to GST at its N-terminal end, phosphorylated in vitro by Src (protein)
chain: SQLLNEVELQEVNRDPPNVFGYASILVSGAEESREPSPQPDQSGMSILRVDGGSAFRIDTAQAATQPTDDLYEEVLFPRN
modifications: tyrosine-phosphorylated in vitro by Src; sites not stated for this construct; left off: GST, N-terminal, kept
For B1, the “interaction (AlphaLISA)” value with PLCγ1 tSH2 domain is “bound more strongly to the PLCγ1 tSH2 domain than to the PLCγ1 SA domain”; in the experiment with PLCγ1 tSH2 domain (listed as pK15 CT^N2) it was “binds strongly to the PLCγ1 tSH2 domain”; in experiment [1], “failed to interact”; in experiment [2], “to a similar extent as wt PLCγ1 SA and PLCγ1 tSH2”.
